Where two headings read alike, the source gives them in different places.
Assays:
[1] = tested on: d22_PeDa01 (Pseudomonas entomophila)
[2] = tested on: EcDa01 (Escherichia coli)
[3] = 5caC at all four C of the listed strand sites
[4] = 5fC at all four C of the listed strand sites

Q: For “AAATTTAATTATAAAACGATCGACGACGAAATAATAAAAA (double strand) [40 bp 5caC oligo]”, which activity (fraction deaminated) [1, 3] is on record?
A: The activity (fraction deaminated) was 0.

Q: And the activity (fraction deaminated) [2, 3]?
A: The activity (fraction deaminated) was 0.

Q: How did the activity (fraction deaminated) [1] turn out when “AAATTTAATTATAAAACGATCGACGACGAAATAATAAAAA (double strand) [40 bp control C oligo]” was run?
A: Its activity (fraction deaminated) is 0.14.

Q: What about the activity (fraction deaminated) [2] of the same sequence?
A: Its activity (fraction deaminated) is 0.6.

Q: With “AAATTTAATTATAAAACGATCGACGACGAAATAATAAAAA (double strand) [40 bp 5fC oligo]” as the sequence, how does the activity (fraction deaminated) [1, 4] read?
A: Its activity (fraction deaminated) is 0.

Q: And the activity (fraction deaminated) [2, 4]?
A: Its activity (fraction deaminated) is 0.01.
